According to the supplement of paper PMC6757056:
± gives the standard deviation of the averaged measurements.

B1: library; a variant is named by its letters at N, in order (parent)
chain: GCUGUCACCGGUGCUUGGUACGUUAUAUUCAGCCGGUCUGAUGAGUCUNNNNNNAGACGAAACAGC

Legend:
[1] = variants of: B1; test: normalized RNA/DNA level without ligand (relative to sTRSVctl = 100) (log10 (% of sTRSVctl)); HEK293T overexpressing SLC46A1; higher = less ribozyme self-cleavage, higher mRNA level; settings: without (6R,S)-folinic acid; ligand present: no
In short: (§1)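 RNA level was computed as RNA reads over DNA reads divided by a spiked-in non-cleaving sequence or by the top sequences, then scaled and log-transformed. Scaling was ×100 with log10, the top group was 25 sequences, and the threshold was ≥100 DNA reads. The reads came from HEK293T cells transfected at 4 µg per 6-well well with ribozyme switch library plasmids (mCherry, or eGFP in some ligand experiments). Total RNA was extracted with EDTA 72 h after transfection, with any ligand added 1 h before it.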

[2] = variants of: B1; test: normalized RNA/DNA level with ligand (relative to sTRSVctl = 100) (log10 (% of sTRSVctl)); HEK293T overexpressing SLC46A1; ligand concentration (+) RNA-Seq: 6 mM; higher = less ribozyme self-cleavage, higher mRNA level; settings: with (6R,S)-folinic acid; ligand present: yes
In short: as §1

Variant | normalized RNA/DNA level without ligand (log10) [1] | normalized RNA/DNA level with ligand (log10) [2]
GCUGUCACCGGUGCUUGGUACGUUAUAUUCAGCCGGUCUGAUGAGUCUCAUGCGAGACGAAACAGC | 2.01 ± 0.019 | 2.01 ± 0.032
GCUGUCACCGGUGCUUGGUACGUUAUAUUCAGCCGGUCUGAUGAGUCUCAUGCUAGACGAAACAGC | 2.051 ± 0.019 | 2.05 ± 0.064
GCUGUCACCGGUGCUUGGUACGUUAUAUUCAGCCGGUCUGAUGAGUCUGAUUCCAGACGAAACAGC | 2.064 ± 0.0098 | 2.043 ± 0.019
GCUGUCACCGGUGCUUGGUACGUUAUAUUCAGCCGGUCUGAUGAGUCUGAUUCGAGACGAAACAGC | 1.978 ± 0.0021 | 2.01 ± 0.042
GCUGUCACCGGUGCUUGGUACGUUAUAUUCAGCCGGUCUGAUGAGUCUAAUUCCAGACGAAACAGC | 2.059 ± 0.018 | 2.036 ± 0.019
GCUGUCACCGGUGCUUGGUACGUUAUAUUCAGCCGGUCUGAUGAGUCUAAUUCAAGACGAAACAGC | 1.9759 ± 0.00044 | 2 ± 0.041
GCUGUCACCGGUGCUUGGUACGUUAUAUUCAGCCGGUCUGAUGAGUCUUAUGCCAGACGAAACAGC | 1.995 ± 0.0025 | 1.99 ± 0.04
GCUGUCACCGGUGCUUGGUACGUUAUAUUCAGCCGGUCUGAUGAGUCUCAUUCGAGACGAAACAGC | 2.037 ± 0.0077 | 2 ± 0.032
GCUGUCACCGGUGCUUGGUACGUUAUAUUCAGCCGGUCUGAUGAGUCUCAUUCAAGACGAAACAGC | 1.96 ± 0.02 | 1.9724 ± 0.001
GCUGUCACCGGUGCUUGGUACGUUAUAUUCAGCCGGUCUGAUGAGUCUCAUUCCAGACGAAACAGC | 2.06 ± 0.033 | 2.02 ± 0.06
GCUGUCACCGGUGCUUGGUACGUUAUAUUCAGCCGGUCUGAUGAGUCUUAUGGUAGACGAAACAGC | 1.8765 ± 0.0006 | 1.98 ± 0.026
GCUGUCACCGGUGCUUGGUACGUUAUAUUCAGCCGGUCUGAUGAGUCUCAUUAGAGACGAAACAGC | 1.94 ± 0.037 | 1.985 ± 0.0055
GCUGUCACCGGUGCUUGGUACGUUAUAUUCAGCCGGUCUGAUGAGUCUCAUUAAAGACGAAACAGC | 1.953 ± 0.0081 | 1.976 ± 0.014
GCUGUCACCGGUGCUUGGUACGUUAUAUUCAGCCGGUCUGAUGAGUCUAAUGGCAGACGAAACAGC | 1.997 ± 0.012 | 2.029 ± 0.019
GCUGUCACCGGUGCUUGGUACGUUAUAUUCAGCCGGUCUGAUGAGUCUAAUGGAAGACGAAACAGC | 1.925 ± 0.0083 | 1.99 ± 0.033
GCUGUCACCGGUGCUUGGUACGUUAUAUUCAGCCGGUCUGAUGAGUCUCAUGUAAGACGAAACAGC | 1.947 ± 0.0027 | 1.99 ± 0.047
GCUGUCACCGGUGCUUGGUACGUUAUAUUCAGCCGGUCUGAUGAGUCUCAUGUCAGACGAAACAGC | 2.03 ± 0.027 | 1.997 ± 0.0052
GCUGUCACCGGUGCUUGGUACGUUAUAUUCAGCCGGUCUGAUGAGUCUAAUGUGAGACGAAACAGC | 1.81 ± 0.0053 | 1.999 ± 0.013
GCUGUCACCGGUGCUUGGUACGUUAUAUUCAGCCGGUCUGAUGAGUCUAAUGUAAGACGAAACAGC | 1.9489 ± 1.8e-05 | 2.01 ± 0.04
GCUGUCACCGGUGCUUGGUACGUUAUAUUCAGCCGGUCUGAUGAGUCUAAUGUUAGACGAAACAGC | 1.972 ± 0.0068 | 1.993 ± 0.0074
GCUGUCACCGGUGCUUGGUACGUUAUAUUCAGCCGGUCUGAUGAGUCUGAUGGAAGACGAAACAGC | 1.987 ± 0.0081 | 2.02 ± 0.043

Variant | normalized RNA/DNA level without ligand (log10) [1] | normalized RNA/DNA level with ligand (log10) [2]
GCUGUCACCGGUGCUUGGUACGUUAUAUUCAGCCGGUCUGAUGAGUCUGAUGGGAGACGAAACAGC | 1.941 ± 0.0096 | 2.043 ± 0.019
GCUGUCACCGGUGCUUGGUACGUUAUAUUCAGCCGGUCUGAUGAGUCUUAUGUAAGACGAAACAGC | 1.8903 ± 0.0016 | 1.99 ± 0.057
GCUGUCACCGGUGCUUGGUACGUUAUAUUCAGCCGGUCUGAUGAGUCUUAUGUCAGACGAAACAGC | 2.05 ± 0.033 | 2.01 ± 0.049
GCUGUCACCGGUGCUUGGUACGUUAUAUUCAGCCGGUCUGAUGAGUCUUAUGUUAGACGAAACAGC | 1.95 ± 0.022 | 2 ± 0.023
GCUGUCACCGGUGCUUGGUACGUUAUAUUCAGCCGGUCUGAUGAGUCUCAUGGCAGACGAAACAGC | 2.04 ± 0.022 | 2.03 ± 0.03
GCUGUCACCGGUGCUUGGUACGUUAUAUUCAGCCGGUCUGAUGAGUCUCAUGGUAGACGAAACAGC | 1.903 ± 0.019 | 1.95 ± 0.037
GCUGUCACCGGUGCUUGGUACGUUAUAUUCAGCCGGUCUGAUGAGUCUCAUGGGAGACGAAACAGC | 1.91 ± 0.015 | 2.008 ± 0.013
GCUGUCACCGGUGCUUGGUACGUUAUAUUCAGCCGGUCUGAUGAGUCUCAUGGAAGACGAAACAGC | 2.0099 ± 0.0018 | 2.04 ± 0.025
GCUGUCACCGGUGCUUGGUACGUUAUAUUCAGCCGGUCUGAUGAGUCUGAUGCCAGACGAAACAGC | 2.014 ± 0.0064 | 2.023 ± 0.013
GCUGUCACCGGUGCUUGGUACGUUAUAUUCAGCCGGUCUGAUGAGUCUGAUGCUAGACGAAACAGC | 1.992 ± 0.0031 | 2 ± 0.039
GCUGUCACCGGUGCUUGGUACGUUAUAUUCAGCCGGUCUGAUGAGUCUUAUUAUAGACGAAACAGC | 1.931 ± 0.012 | 1.985 ± 0.01
GCUGUCACCGGUGCUUGGUACGUUAUAUUCAGCCGGUCUGAUGAGUCUUAUUCAAGACGAAACAGC | 2.019 ± 0.0067 | 2.05 ± 0.037
GCUGUCACCGGUGCUUGGUACGUUAUAUUCAGCCGGUCUGAUGAGUCUUAUUCCAGACGAAACAGC | 1.972 ± 0.0012 | 1.986 ± 0.0039
GCUGUCACCGGUGCUUGGUACGUUAUAUUCAGCCGGUCUGAUGAGUCUAAUUACAGACGAAACAGC | 1.982 ± 0.0057 | 2.01 ± 0.026
GCUGUCACCGGUGCUUGGUACGUUAUAUUCAGCCGGUCUGAUGAGUCUAAUUAAAGACGAAACAGC | 1.95 ± 0.021 | 1.98 ± 0.025
GCUGUCACCGGUGCUUGGUACGUUAUAUUCAGCCGGUCUGAUGAGUCUAAUUAUAGACGAAACAGC | 1.983 ± 0.013 | 2.03 ± 0.038
GCUGUCACCGGUGCUUGGUACGUUAUAUUCAGCCGGUCUGAUGAGUCUAAUUAGAGACGAAACAGC | 1.94 ± 0.0025 | 2.01 ± 0.027
GCUGUCACCGGUGCUUGGUACGUUAUAUUCAGCCGGUCUGAUGAGUCUAAUGCCAGACGAAACAGC | 2.026 ± 0.012 | 2.03 ± 0.03
GCUGUCACCGGUGCUUGGUACGUUAUAUUCAGCCGGUCUGAUGAGUCUAAUGCUAGACGAAACAGC | 2.022 ± 0.01 | 2.02 ± 0.045
GCUGUCACCGGUGCUUGGUACGUUAUAUUCAGCCGGUCUGAUGAGUCUGAUUACAGACGAAACAGC | 1.987 ± 0.014 | 2.017 ± 0.017
